IntAct's records for PubMed 22778397

B1: RNA-binding protein FUS (Homo sapiens), P35637 (parent)
chain: MASNDYTQQATQSYGAYPTQPGQGYSQQSSQPYGQQSYSGYSQSTDTSGYGQSSYSSYGQSQNTGYGTQSTPQGYGSTGGYGSSQSSQSSYGQQSSYPGYGQQPAPSSTSGSYGSSSQSSSYGQPQSGSYSQQPSYGGQQQSYGQQQSYNPPQGYGQQNQYNSSSGGGGGGGGGGNYGQDQSSMSSGGGSGGGYGNQDQSGGGGSGGYGQQDRGGRGRGGSGGGGGGGGGGYNRSSGGYEPRGRGGGRGGRGGMGGSDRGGFNKFGGPRDQGSRHDSEQDNSDNNTIFVQGLGENVTIESVADYFKQIGIIKTNKKTGQPMINLYTDRETGKLKGEATVSFDDPPSAKAAIDWFDGKEFSGNPIKVSFATRRADFNRGGGNGRGGRGRGGPMGRGGYGGGGSGGGGRGGFPSGGGGGGGQQRAGDWKCPNPTCENMNFSWRNECNQCKAPKPDGPGGGPGGSHMGGNYGDDRRGGRGGYDRGGYRGRGGDRGGFRGGRGGGDRGGFGPGKMDSRGEHRQDRRERPY

Variants of: B1
Conditions: with TNPO1, Q92973-2
Sequence of TNPO1, Q92973-2 (Q92973 9-898): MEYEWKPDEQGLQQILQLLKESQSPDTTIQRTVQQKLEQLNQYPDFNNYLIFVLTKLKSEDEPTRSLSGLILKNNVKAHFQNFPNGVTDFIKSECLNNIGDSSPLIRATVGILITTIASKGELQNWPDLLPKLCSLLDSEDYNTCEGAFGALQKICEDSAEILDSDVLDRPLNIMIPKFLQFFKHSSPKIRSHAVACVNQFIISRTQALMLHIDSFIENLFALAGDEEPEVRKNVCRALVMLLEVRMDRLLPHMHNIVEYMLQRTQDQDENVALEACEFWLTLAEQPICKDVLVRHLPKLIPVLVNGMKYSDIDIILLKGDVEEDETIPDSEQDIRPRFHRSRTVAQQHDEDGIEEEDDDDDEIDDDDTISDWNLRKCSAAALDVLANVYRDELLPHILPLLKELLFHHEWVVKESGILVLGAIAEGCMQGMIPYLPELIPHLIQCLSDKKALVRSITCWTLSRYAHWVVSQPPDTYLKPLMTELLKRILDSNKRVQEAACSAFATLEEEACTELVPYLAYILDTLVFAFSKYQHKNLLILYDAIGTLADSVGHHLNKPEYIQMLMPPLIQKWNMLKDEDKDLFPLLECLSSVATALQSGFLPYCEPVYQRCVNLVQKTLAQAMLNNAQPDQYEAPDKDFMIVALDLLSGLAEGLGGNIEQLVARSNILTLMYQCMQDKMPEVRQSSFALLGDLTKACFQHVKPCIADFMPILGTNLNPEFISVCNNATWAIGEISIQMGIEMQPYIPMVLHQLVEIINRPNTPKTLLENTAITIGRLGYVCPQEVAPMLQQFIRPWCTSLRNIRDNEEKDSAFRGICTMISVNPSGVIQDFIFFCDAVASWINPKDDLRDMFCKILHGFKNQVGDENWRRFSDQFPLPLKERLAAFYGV

Effect of a mutation on the interaction, decreasing interaction strength:
MASNDYTQQATQSYGAYPTQPGQGYSQQSSQPYGQQSYSGYSQSTDTSGYGQSSYSSYGQSQNTGYGTQSTPQGYGSTGGYGSSQSSQSSYGQQSSYPGYGQQPAPSSTSGSYGSSSQSSSYGQPQSGSYSQQPSYGGQQQSYGQQQSYNPPQGYGQQNQYNSSSGGGGGGGGGGNYGQDQSSMSSGGGSGGGYGNQDQSGGGGSGGYGQQDRGGRGRGGSGGGGGGGGGGYNRSSGGYEPRGRGGGRGGRGGMGGSDRGGFNKFGGPRDQGSRHDSEQDNSDNNTIFVQGLGENVTIESVADYFKQIGIIKTNKKTGQPMINLYTDRETGKLKGEATVSFDDPPSAKAAIDWFDGKEFSGNPIKVSFATRRADFNRGGGNGRGGRGRGGPMGRGGYGGGGSGGGGRGGFPSGGGGGGGQQRAGDWKCPNPTCENMNFSWRNECNQCKAPKPDGPGGGPGGSHMGGNYGDDRRGGRGGYDRGGYRGRGGDRGGFRGGRGGGDRGGFGPGKMDSRGEHRQDCRERPY [R521C]
MASNDYTQQATQSYGAYPTQPGQGYSQQSSQPYGQQSYSGYSQSTDTSGYGQSSYSSYGQSQNTGYGTQSTPQGYGSTGGYGSSQSSQSSYGQQSSYPGYGQQPAPSSTSGSYGSSSQSSSYGQPQSGSYSQQPSYGGQQQSYGQQQSYNPPQGYGQQNQYNSSSGGGGGGGGGGNYGQDQSSMSSGGGSGGGYGNQDQSGGGGSGGYGQQDRGGRGRGGSGGGGGGGGGGYNRSSGGYEPRGRGGGRGGRGGMGGSDRGGFNKFGGPRDQGSRHDSEQDNSDNNTIFVQGLGENVTIESVADYFKQIGIIKTNKKTGQPMINLYTDRETGKLKGEATVSFDDPPSAKAAIDWFDGKEFSGNPIKVSFATRRADFNRGGGNGRGGRGRGGPMGRGGYGGGGSGGGGRGGFPSGGGGGGGQQRAGDWKCPNPTCENMNFSWRNECNQCKAPKPDGPGGGPGGSHMGGNYGDDRRGGRGGYDRGGYRGRGGDRGGFRGGRGGGDRGGFGPGKMDSRGEHRQDRRERPA [Y526A]
MASNDYTQQATQSYGAYPTQPGQGYSQQSSQPYGQQSYSGYSQSTDTSGYGQSSYSSYGQSQNTGYGTQSTPQGYGSTGGYGSSQSSQSSYGQQSSYPGYGQQPAPSSTSGSYGSSSQSSSYGQPQSGSYSQQPSYGGQQQSYGQQQSYNPPQGYGQQNQYNSSSGGGGGGGGGGNYGQDQSSMSSGGGSGGGYGNQDQSGGGGSGGYGQQDRGGRGRGGSGGGGGGGGGGYNRSSGGYEPRGRGGGRGGRGGMGGSDRGGFNKFGGPRDQGSRHDSEQDNSDNNTIFVQGLGENVTIESVADYFKQIGIIKTNKKTGQPMINLYTDRETGKLKGEATVSFDDPPSAKAAIDWFDGKEFSGNPIKVSFATRRADFNRGGGNGRGGRGRGGPMGRGGYGGGGSGGGGRGGFPSGGGGGGGQQRAGDWKCPNPTCENMNFSWRNECNQCKAPKPDGPGGGPGGSHMGGNYGDDRRGGRGGYDRGGYRGRGGDRGGFRGGRGGGDRGGFGPGKMDSAGEHAQDRRERPY [R514A;R518A]
MASNDYTQQATQSYGAYPTQPGQGYSQQSSQPYGQQSYSGYSQSTDTSGYGQSSYSSYGQSQNTGYGTQSTPQGYGSTGGYGSSQSSQSSYGQQSSYPGYGQQPAPSSTSGSYGSSSQSSSYGQPQSGSYSQQPSYGGQQQSYGQQQSYNPPQGYGQQNQYNSSSGGGGGGGGGGNYGQDQSSMSSGGGSGGGYGNQDQSGGGGSGGYGQQDRGGRGRGGSGGGGGGGGGGYNRSSGGYEPRGRGGGRGGRGGMGGSDRGGFNKFGGPRDQGSRHDSEQDNSDNNTIFVQGLGENVTIESVADYFKQIGIIKTNKKTGQPMINLYTDRETGKLKGEATVSFDDPPSAKAAIDWFDGKEFSGNPIKVSFATRRADFNRGGGNGRGGRGRGGPMGRGGYGGGGSGGGGRGGFPSGGGGGGGQQRAGDWKCPNPTCENMNFSWRNECNQCKAPKPDGPGGGPGGSHMGGNYGDDRRGGRGGYDRGGYRGRGGDRGGFRGGRGGGDRGGFGPGKMDSRGEHAQDRRERPY [R518A]
MASNDYTQQATQSYGAYPTQPGQGYSQQSSQPYGQQSYSGYSQSTDTSGYGQSSYSSYGQSQNTGYGTQSTPQGYGSTGGYGSSQSSQSSYGQQSSYPGYGQQPAPSSTSGSYGSSSQSSSYGQPQSGSYSQQPSYGGQQQSYGQQQSYNPPQGYGQQNQYNSSSGGGGGGGGGGNYGQDQSSMSSGGGSGGGYGNQDQSGGGGSGGYGQQDRGGRGRGGSGGGGGGGGGGYNRSSGGYEPRGRGGGRGGRGGMGGSDRGGFNKFGGPRDQGSRHDSEQDNSDNNTIFVQGLGENVTIESVADYFKQIGIIKTNKKTGQPMINLYTDRETGKLKGEATVSFDDPPSAKAAIDWFDGKEFSGNPIKVSFATRRADFNRGGGNGRGGRGRGGPMGRGGYGGGGSGGGGRGGFPSGGGGGGGQQRAGDWKCPNPTCENMNFSWRNECNQCKAPKPDGPGGGPGGSHMGGNYGDDRRGGRGGYDRGGYRGRGGDRGGFRGGRGGGDRGGFGPGKMDSRGEHRQDRRERLY [P525L]
MASNDYTQQATQSYGAYPTQPGQGYSQQSSQPYGQQSYSGYSQSTDTSGYGQSSYSSYGQSQNTGYGTQSTPQGYGSTGGYGSSQSSQSSYGQQSSYPGYGQQPAPSSTSGSYGSSSQSSSYGQPQSGSYSQQPSYGGQQQSYGQQQSYNPPQGYGQQNQYNSSSGGGGGGGGGGNYGQDQSSMSSGGGSGGGYGNQDQSGGGGSGGYGQQDRGGRGRGGSGGGGGGGGGGYNRSSGGYEPRGRGGGRGGRGGMGGSDRGGFNKFGGPRDQGSRHDSEQDNSDNNTIFVQGLGENVTIESVADYFKQIGIIKTNKKTGQPMINLYTDRETGKLKGEATVSFDDPPSAKAAIDWFDGKEFSGNPIKVSFATRRADFNRGGGNGRGGRGRGGPMGRGGYGGGGSGGGGRGGFPSGGGGGGGQQRAGDWKCPNPTCENMNFSWRNECNQCKAPKPDGPGGGPGGSHMGGNYGDDRRGGRGGYDRGGYRGRGGDRGGFRGGRGGGDRGGFGPGKMDSRGEHRQDRRERAY [P525A]
MASNDYTQQATQSYGAYPTQPGQGYSQQSSQPYGQQSYSGYSQSTDTSGYGQSSYSSYGQSQNTGYGTQSTPQGYGSTGGYGSSQSSQSSYGQQSSYPGYGQQPAPSSTSGSYGSSSQSSSYGQPQSGSYSQQPSYGGQQQSYGQQQSYNPPQGYGQQNQYNSSSGGGGGGGGGGNYGQDQSSMSSGGGSGGGYGNQDQSGGGGSGGYGQQDRGGRGRGGSGGGGGGGGGGYNRSSGGYEPRGRGGGRGGRGGMGGSDRGGFNKFGGPRDQGSRHDSEQDNSDNNTIFVQGLGENVTIESVADYFKQIGIIKTNKKTGQPMINLYTDRETGKLKGEATVSFDDPPSAKAAIDWFDGKEFSGNPIKVSFATRRADFNRGGGNGRGGRGRGGPMGRGGYGGGGSGGGGRGGFPSGGGGGGGQQRAGDWKCPNPTCENMNFSWRNECNQCKAPKPDGPGGGPGGSHMGGNYGDDRRGGRGGYDRGGYRGRGGDRGGFRGGRGGGDRGGFGPGKMDSRGEHRQDRAERPY [R522A]
